Measured values reported in patent US20130011378A1, “Stable formulations of a hyaluronan-degrading enzyme” (priority 2011, published 2013).

Experiment: RP-HPLC: insulin apparent solubility / percent recovery
Conditions: for Solubility of Lispro, % remaining of the original concentration: 7 days at 2-8° C.
How it was run: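 Vial samples withdrawn at each time point, centrifuged, held at 4 °C, run in duplicate by RP-HPLC. Apparent solubility = combined insulin main and desamido peak areas as percent versus standards/initial formulation; purity = main insulin peak as percent of all insulin species.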

With “insulin Lispro: insulin analog LysB28, ProB29; SEQ ID NO:103 and 148” the “Solubility of Lispro, % remaining of the original concentration” value (0.2% methylparaben + […] m-cresol, pH 6.6, NaCl 50 mM) was 42.0%, the “Solubility of Lispro, % remaining of the original concentration” value (0.2% methylparaben + […] m-cresol, pH 6.6, NaCl 80 mM) was 28.2% and the “Solubility of Lispro, % remaining of the original concentration” value (0.2% methylparaben + […] m-cresol, pH 6.6, NaCl 110 mM) was 24.1%. The “Solubility of Lispro, % remaining of the original concentration” value (0.2% methylparaben + […] m-cresol, pH 6.6, NaCl 140 mM) was 25.9%, the “Solubility of Lispro, % remaining of the original concentration” value (0.2% methylparaben + […] m-cresol, pH 6.8, NaCl 50 mM) was 82.3% and the “Solubility of Lispro, % remaining of the original concentration” value (0.2% methylparaben + […] m-cresol, pH 6.8, NaCl 80 mM) was 62.6%. For the same substance, the “Solubility of Lispro, % remaining of the original concentration” value (0.2% methylparaben + […] m-cresol, pH 6.8, NaCl 110 mM) was 47.8%, the “Solubility of Lispro, % remaining of the original concentration” value (0.2% methylparaben + […] m-cresol, pH 6.8, NaCl 140 mM) was 42.0% and the “Solubility of Lispro, % remaining of the original concentration” value (0.2% methylparaben + […] m-cresol, pH 7.0, NaCl 50 mM) was 95.3%. The “Solubility of Lispro, % remaining of the original concentration” value (0.2% methylparaben + […] m-cresol, pH 7.0, NaCl 80 mM) was 98.1%, the “Solubility of Lispro, % remaining of the original concentration” value (0.2% methylparaben + […] m-cresol, pH 7.0, NaCl 110 mM) was 94.1% and the “Solubility of Lispro, % remaining of the original concentration” value (0.2% methylparaben + […] m-cresol, pH 7.0, NaCl 140 mM) was 65.6%. The “Solubility of Lispro, % remaining of the original concentration” value (0.2% methylparaben + […] m-cresol, pH 7.2, NaCl 50 mM) was 95.7%, the “Solubility of Lispro, % remaining of the original concentration” value (0.2% methylparaben + […] m-cresol, pH 7.2, NaCl 80 mM) was 97.9% and the “Solubility of Lispro, % remaining of the original concentration” value (0.2% methylparaben + […] m-cresol, pH 7.2, NaCl 110 mM) was 99.6%. The “Solubility of Lispro, % remaining of the original concentration” value (0.2% methylparaben + […] m-cresol, pH 7.2, NaCl 140 mM) was 98.0%, the “Solubility of Lispro, % remaining of the original concentration” value (0.2% methylparaben + […] m-cresol, pH 7.4, NaCl 50 mM) was 95.6% and the “Solubility of Lispro, % remaining of the original concentration” value (0.2% methylparaben + […] m-cresol, pH 7.4, NaCl 80 mM) was 98.2%. The “Solubility of Lispro, % remaining of the original concentration” value (0.2% methylparaben + […] m-cresol, pH 7.4, NaCl 110 mM) was 99.9%, the “Solubility of Lispro, % remaining of the original concentration” value (0.2% methylparaben + […] m-cresol, pH 7.4, NaCl 140 mM) was 98.5% and the “Solubility of Lispro, % remaining of the original concentration” value (0.2% methylparaben + […] m-cresol, pH 7.6, NaCl 50 mM) was 95.7%. For the same substance, the “Solubility of Lispro, % remaining of the original concentration” value (0.2% methylparaben + […] m-cresol, pH 7.6, NaCl 80 mM) was 98.3%, the “Solubility of Lispro, % remaining of the original concentration” value (0.2% methylparaben + […] m-cresol, pH 7.6, NaCl 110 mM) was 100.2% and the “Solubility of Lispro, % remaining of the original concentration” value (0.2% methylparaben + […] m-cresol, pH 7.6, NaCl 140 mM) was 98.8%. For the same substance, the “Solubility of Lispro, % remaining of the original concentration” value (0.2% phenol + […] m-cresol, pH 6.6, NaCl 50 mM) was 52.8%, the “Solubility of Lispro, % remaining of the original concentration” value (0.2% phenol + […] m-cresol, pH 6.6, NaCl 80 mM) was 32.8% and the “Solubility of Lispro, % remaining of the original concentration” value (0.2% phenol + […] m-cresol, pH 6.6, NaCl 110 mM) was 26.0%. The “Solubility of Lispro, % remaining of the original concentration” value (0.2% phenol + […] m-cresol, pH 6.8, NaCl 50 mM) was 91.4%, the “Solubility of Lispro, % remaining of the original concentration” value (0.2% phenol + […] m-cresol, pH 6.8, NaCl 80 mM) was 65.1% and the “Solubility of Lispro, % remaining of the original concentration” value (0.2% phenol + […] m-cresol, pH 6.8, NaCl 110 mM) was 44.9%. The “Solubility of Lispro, % remaining of the original concentration” value (0.2% phenol + […] m-cresol, pH 6.8, NaCl 140 mM) was 40.4%, the “Solubility of Lispro, % remaining of the original concentration” value (0.2% phenol + […] m-cresol, pH 7.0, NaCl 50 mM) was 97.4% and the “Solubility of Lispro, % remaining of the original concentration” value (0.2% phenol + […] m-cresol, pH 7.0, NaCl 80 mM) was 95.5%. For the same substance, the “Solubility of Lispro, % remaining of the original concentration” value (0.2% phenol + […] m-cresol, pH 7.0, NaCl 110 mM) was 75.2%, the “Solubility of Lispro, % remaining of the original concentration” value (0.2% phenol + […] m-cresol, pH 7.0, NaCl 140 mM) was 65.3% and the “Solubility of Lispro, % remaining of the original concentration” value (0.2% phenol + […] m-cresol, pH 7.2, NaCl 50 mM) was 97.6%. The “Solubility of Lispro, % remaining of the original concentration” value (0.2% phenol + […] m-cresol, pH 7.2, NaCl 80 mM) was 97.4%, the “Solubility of Lispro, % remaining of the original concentration” value (0.2% phenol + […] m-cresol, pH 7.2, NaCl 110 mM) was 95.2% and the “Solubility of Lispro, % remaining of the original concentration” value (0.2% phenol + […] m-cresol, pH 7.2, NaCl 140 mM) was 90.8%. The “Solubility of Lispro, % remaining of the original concentration” value (0.2% phenol + […] m-cresol, pH 7.4, NaCl 50 mM) was 97.7%, the “Solubility of Lispro, % remaining of the original concentration” value (0.2% phenol + […] m-cresol, pH 7.4, NaCl 80 mM) was 97.6% and the “Solubility of Lispro, % remaining of the original concentration” value (0.2% phenol + […] m-cresol, pH 7.4, NaCl 110 mM) was 97.0%. The “Solubility of Lispro, % remaining of the original concentration” value (0.2% phenol + […] m-cresol, pH 7.4, NaCl 140 mM) was 96.9%, the “Solubility of Lispro, % remaining of the original concentration” value (0.2% phenol + […] m-cresol, pH 7.6, NaCl 50 mM) was 97.5% and the “Solubility of Lispro, % remaining of the original concentration” value (0.2% phenol + […] m-cresol, pH 7.6, NaCl 80 mM) was 97.7%. The “Solubility of Lispro, % remaining of the original concentration” value (0.2% phenol + […] m-cresol, pH 7.6, NaCl 110 mM) was 97.3%, the “Solubility of Lispro, % remaining of the original concentration” value (0.2% phenol + […] m-cresol, pH 7.6, NaCl 140 mM) was 96.8% and the “time insulin Lispro stable (soluble)” value (2-8° C., pH 7.0, 50 mM NaCl) was 5 months. The Solubility (2-8° C., pH 7.0, after 1 week at 80, 110 or 140 mM NaCl) was “below 65%”, the “time insulin Lispro stable (soluble)” value (2-8° C., pH 7.6, 140 mM NaCl) was 2 weeks and the “time insulin Lispro stable (soluble)” value (2-8° C., pH 7.6, 50 and 80 mM NaCl, […] m-cresol, […] phenol) was “at least 12 months”. For the same substance, the “Solubility of Lispro, % remaining of the original concentration” value ([…] phenol + […] m-cresol, pH 6.6, NaCl 50 mM) was 60.3%, the “Solubility of Lispro, % remaining of the original concentration” value ([…] phenol + […] m-cresol, pH 6.6, NaCl 80 mM) was 43.3% and the “Solubility of Lispro, % remaining of the original concentration” value ([…] phenol + […] m-cresol, pH 6.6, NaCl 110 mM) was 24.2%. The “Solubility of Lispro, % remaining of the original concentration” value ([…] phenol + […] m-cresol, pH 6.6, NaCl 140 mM) was 27.7%, the “Solubility of Lispro, % remaining of the original concentration” value ([…] phenol + […] m-cresol, pH 6.8, NaCl 50 mM) was 93.6% and the “Solubility of Lispro, % remaining of the original concentration” value ([…] phenol + […] m-cresol, pH 6.8, NaCl 80 mM) was 60.8%. For the same substance, the “Solubility of Lispro, % remaining of the original concentration” value ([…] phenol + […] m-cresol, pH 6.8, NaCl 110 mM) was 44.9%, the “Solubility of Lispro, % remaining of the original concentration” value ([…] phenol + […] m-cresol, pH 6.8, NaCl 140 mM) was 35.9% and the “Solubility of Lispro, % remaining of the original concentration” value ([…] phenol + […] m-cresol, pH 7.0, NaCl 50 mM) was 98.7%. The “Solubility of Lispro, % remaining of the original concentration” value ([…] phenol + […] m-cresol, pH 7.0, NaCl 80 mM) was 96.4%, the “Solubility of Lispro, % remaining of the original concentration” value ([…] phenol + […] m-cresol, pH 7.0, NaCl 110 mM) was 77.0% and the “Solubility of Lispro, % remaining of the original concentration” value ([…] phenol + […] m-cresol, pH 7.0, NaCl 140 mM) was 61.2%. For the same substance, the “Solubility of Lispro, % remaining of the original concentration” value ([…] phenol + […] m-cresol, pH 7.2, NaCl 50 mM) was 100.5%, the “Solubility of Lispro, % remaining of the original concentration” value ([…] phenol + […] m-cresol, pH 7.2, NaCl 80 mM) was 99.2% and the “Solubility of Lispro, % remaining of the original concentration” value ([…] phenol + […] m-cresol, pH 7.2, NaCl 110 mM) was 97.3%. For the same substance, the “Solubility of Lispro, % remaining of the original concentration” value ([…] phenol + […] m-cresol, pH 7.2, NaCl 140 mM) was 93.1%, the “Solubility of Lispro, % remaining of the original concentration” value ([…] phenol + […] m-cresol, pH 7.4, NaCl 50 mM) was 100.8% and the “Solubility of Lispro, % remaining of the original concentration” value ([…] phenol + […] m-cresol, pH 7.4, NaCl 80 mM) was 101.8%. The “Solubility of Lispro, % remaining of the original concentration” value ([…] phenol + […] m-cresol, pH 7.4, NaCl 110 mM) was 100.7%, the “Solubility of Lispro, % remaining of the original concentration” value ([…] phenol + […] m-cresol, pH 7.4, NaCl 140 mM) was 98.4% and the “Solubility of Lispro, % remaining of the original concentration” value ([…] phenol + […] m-cresol, pH 7.6, NaCl 50 mM) was 100.9%. The “Solubility of Lispro, % remaining of the original concentration” value ([…] phenol + […] m-cresol, pH 7.6, NaCl 80 mM) was 102.1%, the “Solubility of Lispro, % remaining of the original concentration” value ([…] phenol + […] m-cresol, pH 7.6, NaCl 110 mM) was 101.6% and the “Solubility of Lispro, % remaining of the original concentration” value ([…] phenol + […] m-cresol, pH 7.6, NaCl 140 mM) was 101.3%.
